# Results: patent US20090010942A1, “NOVEL PRIMATE CHITINASES AND USES THEREFOR” (WYETH, priority 2007, published 2009)
# Where “and” joins values, the source holds several entries; their conditions need not be identical. Equal values may be shown once.
# Assays:
# [1] = pH profile of purified chitinases; type: biochemical; details: for activity at lower pH values: pH 2.0 and 3.5; for pH of maximal activity: pH 2 to pH 8, 5 μM chitobiose-4MU; for slope of the initial rate at the various enzyme concentrations at maximal activity: pH 5.0, 5 μM chitobiose-4MU
# Procedure: Analysis of the pH profiles of hAMCase and mNC were performed by incubating various concentrations of purified hAMCase (ranging from 0.05 nM to 50 nM) or mNC (ranging from 0.018 nM to 5 nM) with 5 μM chitobiose-4MU substrate in 0.1 M citrate phosphate buffer containing 0.005% Brij35 prepared at pH 2 to pH 8. The slope of the initial enzyme rate for each of the enzyme concentrations was then compared at each pH. […] The slope of the initial rate at the various enzyme concentrations measured for this maximal activity was 13.1 for mNC and 0.45 for hAMCase. This maximal value was set to 100% for each enzyme and the relative activity, for comparison of the activity at different pH values.
# [2] = chitinase kcat and Km determination, hydrolysis of chitobiose-4MU; type: biochemical; details: for chitobioside-4MU substrate concentration showing substrate inhibition / apparent transglycosylation: hAMCase 1 nM, mNC 0.25 nM
# Procedure: Km and Kcat values for hAMCase and mNC. To better understand the mechanism for the increased specific activity of mNC compared to hAMCase, we measured the km and kcat for each enzyme. The progress curves of hAMCase (1 nM) hydrolysis reactions for 4MU product formation were linear during the first 10 min. for chitobioside-4MU substrate concentrations between 0 to 75 μM (data not shown). The rate of product formation was slower at the highest substrate concentration tested, 150 μM, compared to 75 μM, reflecting substrate inhibition due to transglycosylation, consistent with a previous report (Chou et al. (2006) Biochemistry 45, 4444-4454). We confirmed the high substrate concentration was not due to inner filter effect. In separate control experiments, the 4MU fluorescent signal was not quenched by chitobiose-4MU up to 600 μM.
# The initial rates within the first 10 min. of hAMCase (1 nM) or mNC (0.25 nM) were plotted against the concentration of chitobiose-4MU that were in the linear range for both enzymes. […] The same Km and Kcat values for each enzyme were obtained from Line-weaver Burke plots of the linear curves.
# [3] = apparent Km of purified chitinases with increasing chitobiose-4MU; type: biochemical; details: for Km: purified 6-histidine tagged enzyme
# From the text: hAMCase, engineered with a C-terminal 6-histidine tag, was purified to a single band on SDS-PAGE from a stable CHO cell line transfected with cDNA encoding this hAMCase construct by nickel chromatography. Similarly, mNC, engineered with a C-terminal 6-histidine tag, was purified to a single band on an SDS-PAGE from COS cells transfected with cDNA encoding this mNC construct by nickel chromatography. The enzymatic activity of recombinant hAMCase to mNC was compared, as follows.
# [4] = relative specific activity of purified chitinases; type: biochemical; details: 5 μM chitobiose-4MU, 0.1 M citrate phosphate
# Procedure: As shown in FIGS. 15A-15D, further characterization of the purified mNC was performed by measuring the relative specific activity, pH profiling, and inhibition by an art-recognized chitinase inhibitor, methylallosamidin. Briefly, various concentrations of mNC, ranging from 0.156 nM to 5 nM, or hAMCase, ranging from 1.56 nM to 50 nM, were incubated with 5 μM chitobiose-4MU substrate in 0.1 M citrate phosphate, 0.0005% Brij35 buffer. The relative specific activity of each enzyme was then determined by measuring the initial rate of enzyme activity versus the enzyme concentration.
# [5] = chitin RBV assay (chitin hydrolysis); type: biochemical; details: 37° C., 24 hours
# Procedure: Chitin RBV assay. Carboxymethyl-substituted chitin labeled covalently with Remazol Brilliant Violet (CM-Chitin-RBV) (Loewe Biochemica, Sauerlach, Germany) was used to measure chitinolytic activity (Wirth S J, Wolf G A, (1992) Soil Biol Biochem v24 p511-519). A solution of 2 mg/ml CM-chitin-RBV (50 μL) was added to hAMCase (AMCase) or mNC (cyno chitintase) in a total volume of 200 μL of buffer (0.2 M citrate phosphate buffer pH 5.0) in 96-well v-bottom plates (Costar Cat. No. 3894 Acton, Mass.). The plates were sealed with low evaporation lids and incubated at 37° C. for 24 hours. The reaction was terminated by the addition of 1 N HCl, causing precipitation of the non-degraded high-polymeric substrate. The plates were cooled on ice for 10 min. and centrifuged (1400 g, 10 min). The supernatants (100 μL) were transferred to 96-well plates (Costar cat. No. 3690) and measured at […] (Molecular devices).
# Chitin hydrolysis. We employed the chitin RBV assay, a soluble, dye-labelled and acid-precipitable assay for endo-chitinases to determine if mNC and hAMCase hydrolyze chitin (Wirth S J, Wolf G A (1992) Soil Biol Biochem 24, 511-519). […] The released amount of soluble chitin oligomers was dose-dependent on enzyme concentration (FIG. 16).
# [6] = chitinase enzyme assay in conditioned media of transfected COS cells; type: biochemical
# Procedure: Enzymatic activity assays were performed using cloned mNC, engineered hNC (stop codon substituted to allow for translation of full protein), engineered mut-hNC (truncated), and cloned hAMCase in COS cells. The full length mNC construct was expressed and the chitinase activity of the resultant gene products was measured.
# Cultured conditions were as follows: COS cells were cultured in DME media and were transfected at 90% confluency using TransIT®-LT1 transfection reagent (MIRUS). 24 hours post transfection, cell culture media was replaced with serum-free R1CD1 media. Conditioned media, containing secreted enzyme, was collected 48 hours later. Chitinase enzyme assays were performed directly from these samples, as follows.
# mNC = test: methylallosamidin inhibition of mNC, chitobiose-4MU substrate; type: biochemical, cynomolgus monkey
# Procedure: (§1) Analysis of hAMCase and mNC inhibition by methylallosamidin was performed by incubating various concentrations of methylallosamidin with 2 nM mNC or 2 nM hAMCase for 10 minutes prior to the addition of 5 μM chitobiose-4MU substrate. Maximal activity was determined by the initial rate of the enzyme activity without the inhibitor methylallosamidin. The percentage of enzyme activity was then calculated and plotted for each concentration of methylallosamidin compared to maximal activity. For the data shown in FIGS. 15C and 15D, the maximal initial rate (RFU/sec) is 1.1 for hAMCase and 21.0 for mNC. […] Conversely, 10 times more methylallosaminidin was required to inhibit mNC than hAMCase.
# hAMCase = target: T1, hAMCase (Homo sapiens, UniProt Q9BZP6); test: methylallosamidin inhibition of hAMCase, chitobiose-4MU substrate; type: biochemical; details: 2 nM hAMCase, 5 μM chitobiose-4MU
# T1 construct: 6-histidine tag (C); made in house
# T1 sequence (Q9BZP6 22-476 N45D/D47N/R61M/I339V/F354S/V432G): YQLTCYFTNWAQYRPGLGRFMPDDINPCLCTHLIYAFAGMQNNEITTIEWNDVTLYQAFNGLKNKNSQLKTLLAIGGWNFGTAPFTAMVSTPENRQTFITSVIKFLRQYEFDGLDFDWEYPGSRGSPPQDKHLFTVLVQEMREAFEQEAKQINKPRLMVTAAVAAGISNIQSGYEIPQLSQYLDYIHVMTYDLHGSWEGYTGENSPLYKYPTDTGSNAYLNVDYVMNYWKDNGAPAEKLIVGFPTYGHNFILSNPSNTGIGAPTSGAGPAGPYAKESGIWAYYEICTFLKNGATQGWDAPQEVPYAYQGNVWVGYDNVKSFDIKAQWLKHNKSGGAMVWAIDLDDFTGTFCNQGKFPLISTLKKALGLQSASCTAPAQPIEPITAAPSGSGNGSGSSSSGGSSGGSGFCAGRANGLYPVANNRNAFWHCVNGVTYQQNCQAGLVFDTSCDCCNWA
# Procedure: as §1
# [7] = Table 1, pH 5.0 citrate phosphate buffer
# [8] = Table 1, pH 5.0 citrate phosphate buffer, read-out: Km
# [9] = text, Michaelis-Menten fit, hAMCase 1 nM or mNC 0.25 nM, read-out: Km app
Molecule,activity at lower pH values [1],pH of maximal activity [1],slope of the initial rate at the various enzyme concentrations at maximal activity [1],"kcat [2, 7]","Km [2, 8]",chitobioside-4MU substrate concentration showing substrate inhibition / apparent transglycosylation [2],kcat ([2]; summary text b32),"kcat ([2]; text b472, unit not given)","Km [2, 9]",lower apparent Km for chitobiose-4MU compared to hAMCase ([3]; mNC versus hAMCase),Km [3],relative specific activity [4],chitin hydrolysis [5],enzymatic (chitinase) activity [6],"Km ([2]; text, Michaelis-Menten fit, hAMCase 1 nM or mNC 0.25 nM, listed as AMCase, read-out: Km app)","inhibition of mNC with increasing concentrations of methylallosamidin (mNC; 2 nM mNC, 5 μM chitobiose-4MU)","IC50 (mNC; 2 nM mNC, 10 minutes preincubation, 5 μM chitobiose-4MU)",amount of inhibitor required to inhibit mNC relative to hAMCase (mNC; mNC versus hAMCase),inhibition of hAMCase with increasing concentrations of methylallosamidin (hAMCase),IC50 (hAMCase; 10 minutes preincubation)
"mNC: macaque novel chitinase cloned from cynomolgus monkey, SEQ ID NO:2","lower activity, but retain significant activity",5.0,13.1,31.8 ± 3.2 s − 1,6 ± 1 µM,≥ 37 µM,about 32 s^−1,31.8+/−3.2,~6 µM and 6 µM,10 fold,2 µM,14.4 units/sec/nM,generated soluble chitin oligomers,significant enzymatic activity,–,–,–,–,–,–
"hAMCase: human Acidic Mammalian Chitinase, SEQ ID NO:29","lower activity, but retain significant activity",5.0,0.45,3.0 ± .35 s − 1,42 ± 6 µM,150 µM,about 3 s^−1,3.0+/−0.35,~42 µM,–,20 µM,0.4 units/sec/nM,generated soluble chitin oligomers,–,42 µM,–,–,–,–,–
COC[C@H]1O[C@@H](O[C@H]2[C@@H](O)[C@@H](NC(C)=O)[C@H](OC3C(O)C4N=C(N(C)C)OC4C3CO)O[C@@H]2CO)[C@H](NC(C)=O)[C@H](O)[C@@H]1O (some centres unmarked) [methylallosamidin],–,–,–,–,–,–,–,–,–,–,–,–,–,–,–,dose-dependent inhibition,58 nM,10 times,dose-dependent inhibition,5.5 nM
